For 1 substance, fold change of the co-immunoprecipitated amount against Csw^WT and fold change of the co-immunoprecipitated amount against Draper-I results are on record in article PMC3337949.

Experiment [1] has as its target substrate-trapping Csw, Csw^C583S (Csw^CS) (Drosophila). Kind of experiment: co-IP.
The target of experiment [2] is wild type Corkscrew (Csw^WT) (Drosophila). The experiment is described as follows: co-IP.

Turning to HA-tagged Draper-II (receptor), the fold change of the co-immunoprecipitated amount against Csw^WT in experiment [1] came to 1.7 fold. This substance also came in with a fold change of the co-immunoprecipitated amount against Draper-I in experiment [2] of 24 fold.
